Data on six molecules can be found in patent publication US11254722B2, “Recombinant proteins and uses thereof” (ACADEMIA SINICA, priority 2017, dated 2022).

Assay [1] has as its system hep3B cells. As to the kind of experiment: hep3B proliferation assay. It counts as cell-based, human. The method, then: (§1) For the proliferation assay, cells except for HUVEC were seeded at a density of 1,000 to 6,000 in 96 wells in an assay buffer of DMEM/F12 plus 0.2% BSA and 10 ug/ml transferrin. Chemical inhibitors were added after 16-20 hours after plating; IGF-1 or other growth factors or test chimeras in assay buffer were added at the time of plating or 16-20 hours after plating. 5,000 HUVEC ells were plated in poly-L-lysine coated 96 wells in M199 with 1%/FBS and HEPES. After 3 to 4 days of culture, growth was determined by incubating cells with Alamar blue for 4 to 6 hours and then the fluorescence (RFU) at 544/590 nm was read. For long term proliferation assays, cells were plated in the growth media with 5% or 10% FBS at densities of 500 to 10,000 cells per cm^2 growth area and grown for 7 to 21 days. Inhibitors and effectors were added 1-4 days after plating. Cells were exposed to cisplatin or gemcitabine for two days. Medium was renewed twice weekly. At completion, cells were fixed and then stained with Giemsa.
The human hepatoma cell line hep3B could be stimulated by many growth factors including IGF-1, IGF-2, HGF, bFGF, VEGF, and neuregulin.

The test system of assay [2] is MCF-7 breast cancer cells. Description: MCF-7 proliferation assay. It counts as cell-based. The following applies: fetal bovine serum; FIG. 1, FIG. 4. The method, then:
(§2) MCF-7 cells (a breast cancer cell line) were maintained in MEM (GIBCO) plus insulin and NEAA and 10% FBS (Hyclone).
as §1
We next examined the effect of 56662 (BP3/Fc) on the proliferation induced by growth factors that interacted with the IGFBP3. The proliferation of MCF-7 breast cancer cells was induced in serum-free medium by individual growth factors like IGF-1, IGF-2, EGF, TGF-a, Nrgbx, b-FGF, and amphiregulin (FIG. 1).

In assay [3] the test system is HUVEC cells. As to the kind of experiment: HUVEC proliferation assay. It counts as cell-based. On the procedure: as §2, §1
Growth factor synergism can also be observed in the proliferation of HUVEC cells.

For assay [4], the system named is HT29 cells. As to the kind of experiment: HT29 proliferation assay. To be noted: FIG. 17A isobologram, FIG. 17B. Type of assay: cell-based, human. On the procedure: as §2, §1
The combination of drug (erlotinib and vemurafenib in hep3b and HT29 cells, respectively) and chimera can be synergistic; so, in addition to enhancing the inhibition, the chimera addition may also lower drug concentration requirements and reduce side effects.

Turning to `COc1cccc2c1C(=O)c1c(O)c3c(c(O)c1C2=O)C[C@@](O)(C(=O)CO)C[C@@H]3O[C@H]1C[C@H](N)[C@H](O)[C@H](C)O1` [doxorubicin, reference compound], in assay [1] (0.01 uM doxorubicin), the “proliferation of hep3B cells” value is “greatly inhibited”.

B1: 80716: IGFBP3 with IGFBP6 linker-gly 6 linker-v1v2-Fc, SEQ ID NO: 16 (protein)
chain: MSEVPVARVWLVLLLLTVQVGVTAGGASSAGLGPVVRCEPCDARALAQCAPPPAVCAELVREPGCGCCLTCALSEGQPCGIYTERCGSGLRCQPSPDEARPLQALLDGRGLCPARAPAVAEENPKESKPQAGTARPQDVNRRDQQRNPGTSTTPSQPNSAGVQDTEMGPCRREMEDTLNHLKFLNVLSPRGVHIPNCDKKGFYKKKQCRPSKGRKRGFCWCVDKYGQPLPGYTTKGKEDVHCYSMQSKPARAPAVAEENPKESKPQAGTARPQDVNRRDQQRNPGTSTTPSQPNSAGVQDTEMIYIFISDTGRPFVEMYSEIPEIIHMTEGRELVIPCRVTSPNITVTLKKFPLDTLIPDGKRIIWDSRKGFIISNATYKEIGLLTCEATVNGHLYKTNYLTHRQGYRIYDVVLSPSHGIELSVGEKLVLNCTARTELNVGIDFNWEYPSSKHQHKKLVNRDLKTQSGSEMKKFLSTLTIDGVTRSDQGLYTCAASSGLMTKKNSTFVRVHEKVECPPCPAPPVAGPSVFLFPPKPKDQLMISRTPEVTCVVVDVSHEDPEVKFNWYVDGVEVHNAKTKPREEQYNSTYRVVSVLTVLHQDWLNGKEYKCKVSNKGLPSSIEKTISKAKGQPREPQVYTLPPSREEMTKNQVSLTCLVKGFYPSDIAVEWESNGQPENNYKTTPPVLDSDGSFFLYSKLTVDKSRWQQGNVFSCSVMHEGLHNHYTQKSLSLSPGK
Consider B1, for which the “inhibition of FBS-induced proliferation of MCF-7” value in assay [2] is “unable to inhibit”.

B2: D2V1V2Fc: IGFBP3 with IGFBP3 linker deletion 2-gly 3 linker-v1v2-Fc, SEQ ID NO: 17 (protein)
chain: MSEVPVARVWLVLLLLTVQVGVTAGHHHHHHGASSAGLGPVVRCEPCDARALAQCAPPPAVCAELVREPGCGCCLTCALSEGQPCGIYTERCGSGLRCQPSPDEARPLQALLDGRGLCVNASAVSRPAPPAPGNASESEEDRSAGSVESPSVSSTHRVSDPKFHPKGHAKDSQRYKVDYESQSTDTQNFSSESKRETEYGPCRREMEDTLNHLKFLNVLSPRGVHIPNCDKKGFYKKKQCRPSKGRKRGFCWCVDKYGQPLPGYTTKGKEDVHCYSMQSKAPPAPGNASESEEDRSAGIYIFISDTGRPFVEMYSEIPEIIHMTEGRELVIPCRVTSPNITVTLKKFPLDTLIPDGKRIIWDSRKGFIISNATYKEIGLLTCEATVNGHLYKTNYLTHRQGYRIYDVVLSPSHGIELSVGEKLVLNCTARTELNVGIDFNWEYPSSKHQHKKLVNRDLKTQSGSEMKKFLSTLTIDGVTRSDQGLYTCAASSGLMTKKNSTFVRVHEKVECPPCPAPPVAGPSVFLFPPKPKDQLMISRTPEVTCVVVDVSHEDPEVKFNWYVDGVEVHNAKTKPREEQYNSTYRVVSVLTVLHQDWLNGKEYKCKVSNKGLPSSIEKTISKAKGQPREPQVYTLPPSREEMTKNQVSLTCLVKGFYPSDIAVEWESNGQPENNYKTTPPVLDSDGSFFLYSKLTVDKSRWQQGNVFSCSVMHEGLHNHYTQKSLSLSPGK
For the molecule B2, in assay [3] (FIG. 14), the “inhibition of HUVEC proliferation stimulated by IGF-1, bFGF, HGF, VEGF, and combinations” value is on record as “inhibited”. The “inhibition with vemurafenib in HT29 cells” value in assay [4] is listed as “synergistic inhibition”.

B3: 105795: IGFBP3 with IGFBP4 linker deletion-Fc, SEQ ID NO: 9 (protein)
chain: MSEVPVARVWLVLLLLTVQVGVTAGGASSAGLGPVVRCEPCDARALAQCAPPPAVCAELVREPGCGCCLTCALSEGQPCGIYTERCGSGLRCQPSPDEARPLQALLDGRGLCMELAEIEAIQESLQPSDKDEGDHPNNSFSPCSAHDRRCLQETEYGPCRREMEDTLNHLKFLNVLSPRGVHIPNCDKKGFYKKKQCRPSKGRKRGFCWCVDKYGQPLPGYTTKGKEDVHCYSMQSKVECPPCPAPPVAGPSVFLFPPKPKDQLMISRTPEVTCVVVDVSHEDPEVKFNWYVDGVEVHNAKTKPREEQYNSTYRVVSVLTVLHQDWLNGKEYKCKVSNKGLPSSIEKTISKAKGQPREPQVYTLPPSREEMTKNQVSLTCLVKGFYPSDIAVEWESNGQPENNYKTTPPVLDSDGSFFLYSKLTVDKSRWQQGNVFSCSVMHEGLHNHYTQKSLSLSPGK
As for B3, the “inhibition of FBS-induced proliferation of MCF-7” value in assay [2] is listed as “unable to inhibit”.

B4: met3con: SEQ ID NO: 32; Met3con is the met3 domain Fc (protein)
chain: MSEVPVARVWLVLLLLTVQVGVTAGAAASGGGSGGGGSGGGGSGGGGDPIVYEIHPTKSFISTWWKEPLNIVSFLFCFASGGSTITGVGKNLNSVSVPRMVINVHEAGRNFTVACQHRSNSEIICCTTPSLQQLNLQLPLKTKAFFMLDGILSKYFDLIYVHSGGGSGGGTGVECPPCPAPPVAGPSVFLFPPKPKDQLMISRTPEVTCVVVDVSHEDPEVKFNWYVDGVEVHNAKTKPREEQYNSTYRVVSVLTVLHQDWLNGKEYKCKVSNKGLPSSIEKTISKAKGQPREPQVYTLPPSREEMTKNQVSLTCLVKGFYPSDIAVEWESNGQPENNYKTTPPVLDSDGSFFLYSKLTVDKSRWQQGNVFSCSVMHEGLHNHYTQKSLSLSPGK
In the case of B4, in assay [1] (Table 10), the “IC50, FBS-stimulated proliferation of hep3B cells” value is given as “no inh”; the “IC50, HGF-stimulated proliferation of hep3B cells” value was “no inh”; the “IC50, IGF1-stimulated proliferation of hep3B cells” value is reported as “No inh”; the “IC50, bFGF-stimulated proliferation of hep3B cells” value is recorded as “no inh”. Besides, the “IC50, nrg-stimulated proliferation of hep3B cells” value in assay [1] (Table 10) was “No inh”.

B5: 3(del2)3: IGFBP3 with IGFBP3 linker deletion 2-Fc, SEQ ID NO: 11 (protein)
chain: MSEVPVARVWLVLLLLTVQVGVTAGGASSAGLGPVVRCEPCDARALAQCAPPPAVCAELVREPGCGCCLTCALSEGQPCGIYTERCGSGLRCQPSPDEARPLQALLDGRGLCVNASAVSRPAPPAPGNASESEEDRSAGSVESPSVSSTHRVSDPKFHPKGHAKDSQRYKVDYESQSTDTQNFSSESKRETEYGPCRREMEDTLNHLKFLNVLSPRGVHIPNCDKKGFYKKKQCRPSKGRKRGFCWCVDKYGQPLPGYTTKGKEDVHCYSMQSKVECPPCPAPPVAGPSVFLFPPKPKDQLMISRTPEVTCVVVDVSHEDPEVKFNWYVDGVEVHNAKTKPREEQYNSTYRVVSVLTVLHQDWLNGKEYKCKVSNKGLPSSIEKTISKAKGQPREPQVYTLPPSREEMTKNQVSLTCLVKGFYPSDIAVEWESNGQPENNYKTTPPVLDSDGSFFLYSKLTVDKSRWQQGNVFSCSVMHEGLHNHYTQKSLSLSPGK
Take B5: in assay [3] (FIG. 6, FIG. 13), the “inhibition of VEGF-induced proliferation of HUVEC cells” value is “did not inhibit”. In addition, in assay [3] (FIG. 13), the “inhibition of HUVEC proliferation induced by IGF, bFGF, HGF or a combination” value was “inhibited”.
